According to paper doi:10.1101/2021.08.28.458008v1:
Residue numbers refer to the chain shown, from its start. Numbers in names are those of the source.

B1: EcGrx2 (Escherichia coli K-12) (protein)
chain: MKLYIYDHCPYCLKARMIFGLKNIPVELHVLLNDDAETPTRMVGQKQVPILQKDDSRYMPESMDIVHYVDKLDGKPLLTGKRSPAIEEWLRKVNGYANKLLLPRFAKSAFDEFSTPAARKYFVDKKEASAGNFADLLAHSDGLIKNISDDLRALDKLIVKPNAVNGELSEDDIQLFPLLRNLTLVAGINWPSRVADYRDNMAKQTQINLLSSMAI
B2: EcGrx2 (Escherichia coli K-12; C12S/C9S) (protein)
chain: B1 chain with C9S, C12S

Substrate: O=C1O[C@H]([C@@H](O)CO)C(=O)C1=O
Assay: purified protein
Settings: 2 mM GSH

| Protein | Km (50 mM sodium phosphate pH 7.4) [µM] | kcat (50 mM sodium phosphate pH 7.4) [s⁻¹] | Km (50 mM sodium phosphate pH 7.4, His6-tagged mutant) |
| --- | --- | --- | --- |
| B1 | 2879 ± 640.4 | 3.8245 |  |
| B2 |  |  | 968 (±462.3) µM |
